# Patent publication US20240101959A1, “USE OF IL-2R-BETA-GAMMA AGONIST PEPTIDES IN CELL MANUFACTURING” (MEDIKINE, INC., priority 2022, published 2024)
# Positions of bridges follow the written chain, without caps; N, C: chain ends. No end group written: not given here.
# T1: hu-IL-2Rβ subunit (human, UniProt P14784 27-240, limits assumed)
# T1 construct: also called human interleukin-2 receptor subunit β; CD122
# T1 sequence (looked up): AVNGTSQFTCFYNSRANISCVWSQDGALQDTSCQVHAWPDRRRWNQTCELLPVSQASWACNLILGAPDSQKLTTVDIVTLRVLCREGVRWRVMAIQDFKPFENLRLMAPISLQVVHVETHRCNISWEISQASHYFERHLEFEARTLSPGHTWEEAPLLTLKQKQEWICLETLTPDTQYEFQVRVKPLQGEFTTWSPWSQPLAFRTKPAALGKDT
# Target: T1, hu-IL-2Rβ subunit
# Experiment: phage ELISA competition assay
row,IC50,Binder
1,< 100 µM,AGFRGRWWPCEYAQVGELCDLE [SEQ ID NO 484]
2,< 100 µM,SGKTQMWNPCYVAKVGELCDLV [SEQ ID NO 482]
3,< 100 µM,KWFHDCFLAKVGDLCDLFLW [SEQ ID NO 533]
4,< 100 µM,DKAGPNFYPCWLAHVGELCDQA [SEQ ID NO 483]
5,< 100 µM,SWHAETWYPCWLAQVGELCDLD [SEQ ID NO 480]
6,< 100 µM,WFPCWLAKVGELCDRDDLAGPS [SEQ ID NO 485]
7,< 100 µM,RDWWLPCEFALIGELCDLERSW [SEQ ID NO 478]
8,< 100 µM,MRTTFWYDCYIAQVGELCDF (not fully specified (bridges); cysteine pairing not given here) [SEQ ID NO 479]

# The next lines start with the binder.
row,Binder,IC50
1,NDHTAWWPCYFAQVGDLCDLV [SEQ ID NO 475],< 100 µM
2,WWPCDFAQIGELCDLGPRFTGE [SEQ ID NO 477],< 100 µM
3,FYPCWIAFVGELCDLE [SEQ ID NO 467],< 100 µM
4,WWPCEIAQIGELCDLEWVRHAE [SEQ ID NO 476],< 100 µM
5,ETEQMSWYPCWVAQLWELCDLD (disulfide 10-19 (inferred)) [SEQ ID NO 110],< 100 µM
6,SLAHRSWYPCWLAQVGELCDLD [SEQ ID NO 464],< 100 µM
7,HRWYPCWLAHLGELCDLDPMS [SEQ ID NO 466],< 100 µM
8,AYYPCELAQLGELCDLYNI [SEQ ID NO 473],< 100 µM
9,WLNRHLFNPCWMARLGELCDLE [SEQ ID NO 108],< 100 µM
10,WYPCWMALLGELCDQE [SEQ ID NO 81],< 100 µM
11,EWFHDCFLAKVGDLCDLFLW [SEQ ID NO 481],< 100 µM
12,EGHWYPCWIAQLGELCDLDW [SEQ ID NO 468],< 100 µM
13,WEKLQNWYPCWIAQMGELCDLE (not fully specified (bridges); cysteine pairing not given here) [SEQ ID NO 470],< 100 µM
14,WTGWSAFYPCSIANLGELCDLD [SEQ ID NO 469],< 100 µM
15,AQVRREWYPCWMAQLGELCDLT (disulfide 10-19 (inferred)) [SEQ ID NO 109],< 100 µM
16,TNGVLDWWPCWMAQVGELCDLD (not fully specified (bridges); cysteine pairing not given here) [SEQ ID NO 471],< 100 µM
17,QNASKGWYPCWIAHVGELCDWD [SEQ ID NO 465],< 100 µM
